Experiment: yeast display, Sf9 membrane polyspecificity reagent, FACS + sequencing; frameworks hold sequencing errors
Method in brief: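 A nanobody's polyreactivity label depends on the gate it was sorted from. Yeast display cells were stained with 10% biotinylated, detergent-solubilized Sf9 membrane reagent for 1 hour at 4 °C, enriched on streptavidin microbeads and sorted by FACS. The low and high (top ~1%) gates were set on anti-HA fluorescence for expression and streptavidin fluorescence for reagent binding.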

Sequence	polyreactivity (PSR sort gate)
QVQLVESGGGLVQAVGSLRLSCAASGRIFRYYAMGWYRQATGKESELVAAISDSSGYTYYADSVKGRFTISRDNAKNTVYLQMISLKPEDTAVYYCRDYLGSGYYYWGQGTQVTVSS	high polyreactivity
QVQLVESGGGLVQAGGSLRLSCAASGRIFTHNAMGWYRQAPGKERELVAAISYSGVSTYYADSVKGRFTISRDNAKNTVYLQMNSLKPEDTAVYYCARDRWKWHYGYDYWGQGTQVTVSS	low polyreactivity
QVQLVESGGGLVQAGGSLRLSCAASGSIFSTYAMGWYRQAPGKERELVAAITRRGGSTYYADSVKGRFTISRDNAKNTVYLQMNSLKPEDTAVYYCNAAAKSRMDYWGQATQVTVSS	high polyreactivity
QVQLVESGGGLVQAGGSLRLSSAASGSILYFNAMGWYRQAPGKERELVAAISRSGGSTYYADSVKGRFTISRDNAKNTVYLQMNSLKPEDTAVYYCAAVYIRCRGNRFDYWGQGTQVTVSS	high polyreactivity
QVQLVESGGGLVQAGGSLRLSCAASGSIFLNYAMGWYRQAPGNERELVAGISNGGSTNYADSVKGRFTISRDNAKNTVYLQMNSLKPEDTAVYYCARPAYKSRGKRFDYLGQGTQVTVSS	low polyreactivity
QVQLVESGGGLVQAGGRLRLSCAASGSIFYSNAMGWYRQAPGKERELVARITWSGGSTYYADSVKGRFTISRDNAKNTVYLQMNSLKPEDTAVYYCNKVIFRYFTTRPTRTYEYWGQGTQVTVSS	low polyreactivity
QVQLVESGGGLVQAGGSLRLSCAASGSTFYNYAMGWYRQAPGKERELVAAITSSGGSTYYADSVKGRFTISRDNAKNTVYLQMNSLKPEDTAVYYCNADDGYGQVHSISTYEMDYWGQGTQVTVSS	low polyreactivity
QVQLVESGGGLVQAGGSLRLSCAASGFISDWYAMGWYRQAPGKERELVATIDWIGGSTYADSVKGRFTISRDNAKNTVYLQMNSLKPEDTAVYYCAADSYFIAWYGAHYAYDYWRQGTQVTVSS	low polyreactivity
QVQLVESGGGLVQAGGSLRLSCAASGRIFTRNAMGWYRQAPGKEREFVAAISSSGSSTYFADSVKGRFTISRDNAKNTVYLQMNSLKPEDTAVYYCAARVTSPVSHDRVDYWGQGTQVTVSS	high polyreactivity
QVQLVQSGGGLLQAGGSLRLSCAASGSINIYNDMGWNRQATGKERELVAAITSSGGSTYYADSVKGGFTISRDNGKNTVYLQMNSLKPEDTAVYYCAADYVDHKVWYDYWGHGTQVTVSS	low polyreactivity
QVQLVESGAGLGQAGGSLRLSCAASGYTFPSNAMGWYRQAPGKERELVAAISSGGRTNYADSVKGRFTISRDNAKNTVYLQMNSLKPEVTAVYYCNADGGPGYPRAYDYWGPGTQVTVSS	low polyreactivity
QVQLQESGSGLVQAGGSLRLSCAASGAIFPAYLMGWYRQAPGKERELVAGISYGSITYCADSVKGRFNISRDNAKNTVYLQMNSLKPEDTAVYYCAVWRPGVDEYYYWGQGTQVTVSS	low polyreactivity
QVHLVESGGGLVQAGGSLPLSCAATGRTFVYYAMGWYIQAPGKERELVAAITWTGGSTYYADSVKGRFTISRDTAKNTVYLHMNSMKPEDTAVYYFKAAVFRYRNEYDYWGQGTQVTVSS	low polyreactivity
QVQLVESGGGLVQAGGSLRLSCAASGGIFTQYVMGWYRQAPGKERELVAAINWSGGSTTYAYSVKGRFTISRDNAKNTVYLQMNSLKPEVTAVYYCAAYSYREFYYWGQGTQVTVSS	high polyreactivity
QVQLVESGGGLVQAGGSLRLSCAPSGFTFRYYGMGWYRQAPGKERELVAAITRTGGSTYYADSVKGRFTISRDNAKYTVYLQMNSLKPEDTAVYFCGAGGSYAYVYWGQGTQVTVSS	high polyreactivity
QVQIVESGGGLVQAAGSLRLSCPASGRIFSDYAMGWYRQAPGKERELVAVITRGGDNTHYADSVKGRFTISRDNAKNTVYFQMNSLKPEDTAVYYCAAGFVYFRLRRYFWRDYWGQGTQVTVSS	low polyreactivity
QVQLVESGGGLVQAGGSLRLSCAASGSTFIYYAMGWNRQAPGKERELVDSISRSGGSTYYADSVKGRFTISRDNAKNTVYLQMNSLKPEDTAVYYCARAYRSSFNYWGQGTQVTVSS	high polyreactivity
QVQLVESGGGLVQAGGSLRLSCASSGFILDYNAMGWYRQAPGKERQLVATITGRGDRTYYADSVKGRFTISRDNAKNTVYLQMNSLKPEDTAVYYCAAGFDGSSHPGFDSWGQGTQVTVSS	low polyreactivity
QVQLVESGGGLVQAGGSLRLSCSASGRTFYSYAMGWYRQPRGKERELVATIRRGGRTNYADSVKGRFTISRDNAKNTVYLLMNSLKPEDTAVYYCAAEDYRSLVTSTYDYWGQGTQVAVSS	low polyreactivity
QVQLVESGGGLVQAGGSLRLSCAASGRIFWPYAMGWSRQAPGKERELVAAITSGGSTYYADSVKGRFTISRDNAKNTVYLQMNSLKPEDTAVYYCAKRSSGVSVPVAYGGIKRYNSWGQGTQVTVSS	low polyreactivity
QVQLVESGGGLVQAGGSLRLSCAASGRIFYYYVMGWYRQAPGKERELVAAISSRGGSTYYADSVKGRFTISRDNAKNTVYLQMNSLKPEDTAVYYCAAEYGSISLRYPYYWRYDYWGQGTQVTVSS	high polyreactivity
QVQLVESGGGLVQAGGSLRLSCAASGITFSRYAMGWYRQAPGKERELVAAITWDGGRTYYADSVKGRFTISRDNAKNTVYLQMNSLKPEDTAVYYCAASRYSPVRWVWLYYWGQGTQVTVSS	high polyreactivity

Sequence	polyreactivity (PSR sort gate)
QVQLVESGGGLVQAGGSLRLSCAASGSIFTYNAMGWYREAPGKERELVAAIRLSGGSTYYADSVKGRFTISRDNAKNTVYLQMNSLKPEDTAVYYCAAESAAASAVYSVEYDYWGQGTQVTVSS	low polyreactivity
QVQLVESGGGLVQAGGSLRLSCAASGLTFYLYAMGWYRQAPGKERELVAAITSGGSTYYADSVKGRFTISRDNAKNTVYLQMNSLKPEDTAVYYCNKLTYGRVWDHHYDYWGQVTQVTVSS	low polyreactivity
QVQLVESGGGVVQAGGSLRLSGAASGITFSVNAMGWYRPAPGKEREFVAAISSSGGSTYYADSVKGRFTISRDNAKNTVYLQMNSLKPEDTAVYYCAVDYYSYYYEDDYWGQGTQVTVSS	high polyreactivity
QFQLVESGGGLVQAGGSLRLSCAASGSIFISNAMGWYRQAPGKERDLVAAISWTSGSTYYADSVKGRFTISRDNAKNTVYLQMNSLKPVDTAFYYCAALGGAALDWGVVEVGYWGKGTQVTVSS	low polyreactivity
QVQLVDSGAGLVQAGGSLRLSCDASGSTFRGYAMGWYRQSPWKERELVAAITYISDSTYYADSVKGRFTISRDNAKNTVFLQMISLNPEDTAVYYCNAYYDGDWRYTSQVTGDLWGQGTQVTVSS	low polyreactivity
QVQLVESGGGLVQAGGSLRLSCAASGSTFPVYAMGWYRQAPGKERELVAAISRAGSTNYADSVKGRFTISRDNAKNSVYLQMNSLKPEDTAVYYCAARGYLWAGEWYVRRDDWGQGTQVTVSS	high polyreactivity
QVQLVESGGGLVQAGGSLRLICAASGRIFKINAMGWYRQAPGKERELVAGISGSGSDTYYADSVKGSFTISRDNAKYTVYLQMNSLKPEDTAVYYCAAVAYDWALFYYWGQGTQVTVSS	low polyreactivity
QVQLVESGGGLVQEGGSLRLSCAASGRIFRRYTMGWYRQAPGKERELVAVITSGGNTHYADSVKGRFTISRDNAKNTVYLQMNSLKPEDTAVYYCAARHYRGSNDYWGQGTQVTVSS	high polyreactivity
QGQLVESGGGLGQAGGSLRLSSAASGRTFGRYAMGWYRQAPGNERELVAAISYSTDSTYYADSVKGRFTISRDNAKNTVYLQMNSLKPEDTAVYYCATDSVNVGSYVGDKHDYWGQGSQVTVSS	low polyreactivity
QVQLVESGGGLVQAGGSLRLSCAASGSIIGTNVMGWYRQAPGKERELVASISYRDGTTYYADSVKGRFTISRDNAKNTLYLQMNSLKPEDTAVYYCAVANYYSYYWGQGTQVTVSS	low polyreactivity
QVQLVESGGGLVQAGGSLRLSCAASGLTFGYYAMGWYRPAPGKEREFVAAISKSGGGTYYADSVKGRFTISRDNAKNTVYLQMNSLKPEDTAVYYCAARWFVGYNYWGQGTQVTVSS	high polyreactivity
QVQLVESGGGLFQAAGSLRLSCAASGLTFAYNAMGWYRQAPGKERELDAEISKRGGSTFYADSVKGRFTLSHVNAKNTVYLQMNSLKPEDTAVYYCARGSYPYRSFWLTSDDWGQGTQVTVSS	high polyreactivity
QVQLVESGGGLDHAGGSLRLSCAASGYTLTDYVMGWYRQAPGKQRELVAAIDWRDGTTYADSVKGRFTISRDNAKNTVYLQFNILKPEDTAVYFCGTDELLTSPRYPEYDYWGQGTQVTVSS	low polyreactivity
QVQLVESGGGLVQAGGSLRLSCAASGSIFVRNVMGWYRQAPGKERELVAGISWNGGSTFYADSVKGRFTISRDNAKNTVYLQMNSLKPEDTAVDYCATPYGRHGWFYLYDYWGQGTQVTVSS	low polyreactivity
QVQLVESGGGLVQAGGSLRLSSAATGSIFLSNMGWYRQAPGKERELVAAIYRNGGSTYYADSVKGRFTISRDNAKNTVYLQMNSLKPEDTAVYYCAVQRYWGQGTQVTVSS	high polyreactivity
QFQLVESGGGLVQAGGSLRLSCAASGRIFYSYAMGWYRQAPGKERELVAAISRSGTSTFYADSLKGRFTISRDNAKNTVYLQMNSLKPEDTAVYYCNAVISPYVIRSEYWGQGTQVTVSS	low polyreactivity
QVQLQESGGGLVQAGGTLRLSCAASGSIYDDTYMGWYRQAPGKERELVATIDSGSTTNYADSVKGRITISRDNAKKTVYLQMNSLKPEDTAVYYCAAADSHIDYFDYWGQGTQVTVSS	low polyreactivity
QVQLVESGGGLVKAGGSLRLSCAASGITFWRYTMGWYRQAPGIERELVAAITSRGGNTYYADSVKGRFTISRDNAKNTVYLQLNSLKPEDTAVNYCNADRYNKYWYDYWGQGTQVTVSS	high polyreactivity
QVQLVESGGGLVQAGGSLRLSSAASGRIFAGNAMGWYRQAPGKERELVAVISKGGGRTYYADSVKGRFTISRDNAKNTVYLQMNSLKPEDTAVYDCDAEGSYWFRRYGYWGQGTQVTVSS	high polyreactivity
QVQLVESGGGLVQAGGSLRLSWATSGFILLDNALGWYRQAPGKESEFVASINISGDRTFYADSVKGRFTISRDNAKNTVYLQMNSLKAEDTAVYYCAKEPGWGRRSTTAYDYWGQGTQVTVSS	low polyreactivity
QVQLVESGGGLVQAGGSLRLSCAASGSTFHQNTMGWYRQAPVKEREMVAAISWTGGGTYYADSVKGRYTISRDNAKNTVYLQMNSLKPEDTAVYYCAADYSDFWGFRYYYWGQGTQVNVSS	low polyreactivity
